Assay results as given in US20230272086A1 (CHIA TAI TIANQING PHARMACEUTICAL GROUP, published 2023).
Substitutions are numbered along the chain they refer to.

T1: cynomolgus monkey ST2 antigen (Cyno-ST2-his, Sino biological, 90915-C08H) (cynomolgus monkey, UniProt Q01638 19-328 (human entry))
T1 construct: Bought protein; not shown: his tag
T1 chain: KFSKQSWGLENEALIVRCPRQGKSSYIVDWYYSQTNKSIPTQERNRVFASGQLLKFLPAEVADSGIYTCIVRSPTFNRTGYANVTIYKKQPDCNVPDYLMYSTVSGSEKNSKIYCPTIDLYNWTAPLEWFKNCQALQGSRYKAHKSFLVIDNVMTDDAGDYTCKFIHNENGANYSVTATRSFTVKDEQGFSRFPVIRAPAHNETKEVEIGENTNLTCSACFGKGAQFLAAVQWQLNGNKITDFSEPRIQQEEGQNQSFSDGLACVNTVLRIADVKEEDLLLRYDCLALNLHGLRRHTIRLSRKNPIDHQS

T2: cynomolgus monkey ST2 on HEK293T-Cyno-ST2-NFκB-Luciferase cells (cynomolgus monkey, UniProt Q01638 19-556 (human entry))
T2 chain: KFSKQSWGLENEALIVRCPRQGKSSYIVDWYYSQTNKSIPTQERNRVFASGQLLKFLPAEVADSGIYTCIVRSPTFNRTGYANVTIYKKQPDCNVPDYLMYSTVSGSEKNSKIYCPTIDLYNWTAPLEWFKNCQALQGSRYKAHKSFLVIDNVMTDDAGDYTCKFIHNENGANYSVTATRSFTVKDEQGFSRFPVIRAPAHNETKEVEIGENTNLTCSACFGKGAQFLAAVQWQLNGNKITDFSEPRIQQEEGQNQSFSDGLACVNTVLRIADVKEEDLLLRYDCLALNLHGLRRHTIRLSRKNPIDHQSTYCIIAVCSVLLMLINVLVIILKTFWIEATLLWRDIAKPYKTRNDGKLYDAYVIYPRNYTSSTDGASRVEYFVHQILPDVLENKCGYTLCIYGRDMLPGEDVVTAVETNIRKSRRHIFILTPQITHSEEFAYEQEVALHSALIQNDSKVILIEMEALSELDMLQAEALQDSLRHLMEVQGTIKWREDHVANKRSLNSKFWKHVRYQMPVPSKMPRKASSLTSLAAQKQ

B1: Chimeric 17E2 (antibody, human IgG2, kappa, V domains shown)
VH: QVQLQQSGAELVRPGASVTLSCKASGYTFTDYEMHWVKQTPVLGLEWIGAIDPETGDTAYNQKFKGKATLTADKSSSTAYMELSSLASEDSAVYYCIRVDSNYDYFDYWGQDTTLTVSS
VL: DIVLTQSPPILSASPGEKVTMTCRASSSVSYMHWYQQKPGSSPKPWIYDTSNLASGVPARFSGSGSGTSYSLTISRVEAEDAATYYCQQWSSNPLTFGAGTKLELKR
notes: also called xi17E2
B2: Chimeric 31C8 (antibody, human IgG2, kappa, V domains shown)
VH: QVQLQQSGPELVRPGASVTLSCKASGYIFIDSEMHWVKQTPVHGLEWIGAIDPETGDTVYNQKFKGKATLTADKSSSTASMELSSLTSEDSAVYYCTGSTTDYYFAYWGQGTTLTVSS
VL: DIVMTQAAFSNPVTLGTSASISCRSSKSLLHSNGIIYLYWYLQKPGQSPQLLIYQMSNLASGVPDRFSSSGSGTDFTLRISRVEAEDVGVYYCAQNLELPFTFGSGTKLEIKR
notes: also called xi31C8
B3: Chimeric 3C6 (antibody, human IgG2, kappa, V domains shown)
VH: QVQLQQSGAEVVRPGASVTLSCKASDYTITDYEMHWVKQTPVHGLEWIGAIDPETGDTAYSQNFKGKATLTADESSSTAYMELSSLTSEDSAVYYCSRSATDYYFASWGQGTTLTVSS
VL: B2 VL with F9I, I21M, I36T, Q47H, R79K
notes: also called xi3C6
B4: Chimeric 8F4 (antibody, human IgG2, kappa, V domains shown)
VH: B2 VH with P9A, Y27H, I30T, S32Y, H35Q, I51F, V59A, S80Y, T97S, T113S
VL: B2 VL with I2V, A7T
notes: also called xi8F4
B5: Chimeric 26A1 (antibody, human IgG2, kappa, V domains shown)
VH: B2 VH with P9A, G26D, I30T, M34I, P41L, V59A, S80Y, D90G, T97S, Y103C
VL: B2 VL
notes: also called xi26A1
B6: Chimeric 7D1 (antibody, human IgG2, kappa, V domains shown)
VH: QVQLQQSGAELVRPGASVTLSCKASGYTFTDYEMHWVKQTPVHGLDWIGTIDPETGDTAYNQKFKGRATLTADKSSSTAYMELSSLTSEDSAVYYCTRYSYTNSPYGMDYWGQGTSVTVSS
VL: DVVMTQTPKFLLVSAGDRVTITCKASQSVSNDVAWYQQKPGQSPKLLIYYASNRYTGVPDRFTGSGYGTDFTFTINTVQAEDLAVYFCQQDYSSPYTFGGGTKLEIKR
notes: also called xi7D1
B7: RG6149 (antibody Ab2 in CN104334582, prepared in-house) (antibody, human IgG2, kappa, V domains shown)
VH: EVQLVQSGAEVKKPGESLKISCKGSGYSFTNYWIGWVRQMPGKGLEWMGIIYPGNSDTRFSPSFQGQVTISADKSITTAYLQWSSLKASDTAMYYCARHGTSSDYYGLDVWGQGTTVTVSS
VL: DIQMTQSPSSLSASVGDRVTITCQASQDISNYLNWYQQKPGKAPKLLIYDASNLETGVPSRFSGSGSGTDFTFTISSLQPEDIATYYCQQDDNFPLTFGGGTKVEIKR
notes: Control anti-ST2 antibody

Biological target: T1, cynomolgus monkey ST2 antigen …
Assay: ELISA, plate coated with Cyno-ST2-his
Experimental: ST2 binding screening and analysis of antibodies were performed by ELISA using hST2-ECD-mFc (for assays of chimeric and humanized antibodies), hST2-ECD-hFc protein (for assays of hybridoma antibodies) and Cyno-ST2-his (Sino biological, 90915-C08H) as antigens. A high-adsorption 96-well plate (Costar, 9018) was coated with 2 µg/mL hST2-ECD-mFc or Cyno-ST2-his antigen at 100 µL/well and incubated overnight at 4° C. After the antigen not adsorbed was well washed off, the non-specific binding sites were blocked with a blocking buffer (PBS containing 2% bovine serum albumin). After the plate was washed three times with a washing buffer (PBS containing 0.05% (v/v) Tween 20), the anti-ST2 antibodies (serially diluted 3-fold from an initial concentration of 10 nM to 8 concentrations: 3.333 nM, 1.111 nM, 0.370 nM, 0.123 nM, 0.041 nM, 0.014 nM, 0.005 nM, and 0.002 nM) were added at 100 µL/well, and the plate was incubated at room temperature for 1 h. After the plate was washed with the washing buffer, a horseradish peroxidase (HRP)-conjugated secondary antibody was added, and the plate was incubated for another 60 min. After the plate was washed with the washing buffer, the substrate TMB solution (Thermo, 00-4201-56) was added at 100 µL/well, and the plate was incubated at room temperature for 2 min. A stop solution (2 N H₂SO₄) was added at 100 µL/well to terminate the reactions. Colorimetric signals were generated and read at 450 nm using a microplate reader (PE, Envision). The data were analyzed using GraphPad Prism5, and the EC₅₀ values were calculated.

Binder	EC50 [nM]
B1	0.22
B2	0.163
B3	0.43
B4	0.164
B5	0.946
B6	0.191
B7	0.129

Biological target: T2, cynomolgus monkey ST2 on …
Assay: flow cytometry on HEK293T-Cyno-ST2-NFκB-Luciferase cells
Experimental: The binding capacity of the anti-ST2 antibodies to hST2-overexpressing cell lines and cyno-ST2-overexpressing cell lines was analyzed using an FACS-based method through binding assays with the hST2 (SEQ ID NO:1)-overexpressing HEK293T cell line (HEK293T-hST2-NFκB-Luciferase) and the cynomolgus monkey ST2 (SEQ ID NO: 10)-overexpressing HEK293T cell line (HEK293T-Cyno-ST2-NFKB-Luciferase). HEK293 cells were transfected with the pLenti6.3- hST2 plasmid and the pLenti6.3-NFκB-luciferasae plasmid using a lentiviral transfection system to construct the cell line HEK293T-hST2-NFκB-Luciferase. HEK293T cells were transfected with the pLenti6.3-cynoST2 plasmid and the pLenti6.3-NFκB-luciferasae plasmid to construct the cell line HEK293T-Cyno-ST2-NFκB-Luciferase.
3 × 10⁵ HEK293T-hST2-NFκB-Luciferase or HEK293T-Cyno-ST2-NFκB-Luciferase cells were added to a 96-well culture plate. Serially diluted anti-ST2 antibodies (serially diluted 4-fold from an initial concentration of 667 nM to 8 concentrations in binding assays with the HEK293T-hST2-NFκB-Luciferase cells; serially diluted 4-fold from an initial concentration of 400 nM to 8 concentrations in binding assays with the HEK293T-Cyno-ST2-NFκB-Luciferase cells) were added to the cell suspensions. After the plate was incubated at room temperature for 60 min, the cells were washed 3 times with PBS. […] The cells were washed 3 times with PBS and resuspended in 100 µ1L of PBS, and then the fluorescence signals were analyzed and detected using a flow cytometer (BD, Accuri C6). The binding capacity of the anti-ST2 antibodies to hST2 and cyno-ST2 on the cell line surfaces was measured in terms of the mean fluorescence intensity (MFI) of staining. The data were analyzed using GraphPad Prism5, and the EC₅₀ values were calculated. The EC₅₀ values for the binding of the anti-ST2 chimeric antibodies to hST2 and Cyno-ST2 at the cellular level are shown in Table 8 and FIGS. 7-8.

Binder	EC50 [nM]
B1	0.487
B2	0.83
B3	105
B4	0.458
B5	415
B6	0.394
B7	0.647
